In the supplement of paper PMC10126150:
± gives the standard deviation of the averaged measurements.

Tested on: ATP
Assay: switch fluorescence ratio, 500 uM ATP over buffer (Cy3 cluster intensity, sum of 5 cycles each) (fold (ratio)); higher = stronger signal-on switching upon ATP binding; sequences stand for … in TCGTCGGCAGCGTCAGATGTGTATAAGAGACAGTTTTTTTTTTTTTTTTTTTTTTTTT…TC
Details: aptamer strand: ATP DNA aptamer (quencher-CACCTGGGGGAGTATTGCGGAGGAAGG + anchor), 100 nM annealed; ATP concentration: 500 uM
Method in brief: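 Clusters with intensities outside 100-1000 RFU were excluded. The remaining Cy3-labelled switching-strand clusters on a modified Illumina MiSeq flow-cell had been annealed to 100 nM quencher-labelled ATP aptamer and imaged in selection buffer, then after 15 min with 500 uM ATP at 22 °C, for five cycles separated by NaOH stripping and re-annealing. The fluorescence ratio, averaged per switch-domain sequence, is each cluster's summed target-cycle Cy3 intensity over its summed buffer-cycle Cy3 intensity.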
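Further: ATP exposure 15 min at 22 °C before imaging.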

GGGGTATCGA and GGGGTATGCT are within error of each other in switch fluorescence ratio: 0.998 ± 0.039 for the first, 1.03 ± 0.032 for the second.

GGGGTATGTC and GGGGTATGTT are within error of each other in switch fluorescence ratio: 1.02 ± 0.053 for the first, 0.99 ± 0.036 for the second.

GGGGTATTGA and GGGGTATTGG are within error of each other in switch fluorescence ratio: 1.03 ± 0.037 for the first, 0.993 ± 0.035 for the second.

GGGGTATTGT and GGGGTCAGGT are within error of each other in switch fluorescence ratio: 1.007 ± 0.0034 for the first, 1 ± 0.024 for the second.

GGGGTCCTTA and GGGGTCGATG are within error of each other in switch fluorescence ratio: 1 ± 0.018 for the first, 0.9847 ± 0.0042 for the second.

GGGGTCGGTG and GGGGTGACGT are within error of each other in switch fluorescence ratio: 0.969 ± 0.03 for the first, 1.02 ± 0.031 for the second.

Going from GGGGTGCTTT to GGGGTGGACG, the switch fluorescence ratio rises from 0.987 ± 0.017 to 1.07 ± 0.021.

GGGGTGGATA and GGGGTGGGTG are within error of each other in switch fluorescence ratio: 0.996 ± 0.027 for the first, 1.03 ± 0.039 for the second.

GGGGTGTACC and GGGGTGTAGA are within error of each other in switch fluorescence ratio: 0.985 ± 0.033 for the first, 1.02 ± 0.03 for the second.

GGGGTGTTAG and GGGGTGTTGT are within error of each other in switch fluorescence ratio: 1.02 ± 0.012 for the first, 1 ± 0.04 for the second.

GGGGTTAAAG and GGGGTTACAG are within error of each other in switch fluorescence ratio: 0.977 ± 0.022 for the first, 1.01 ± 0.013 for the second.

GGGGTTAGCT and GGGGTTATAG are within error of each other in switch fluorescence ratio: 0.987 ± 0.018 for the first, 1.04 ± 0.12 for the second.

GGGGTTATTC and GGGGTTCACC are within error of each other in switch fluorescence ratio: 0.986 ± 0.026 for the first, 0.957 ± 0.023 for the second.

GGGGTTCACT and GGGGTTCGTA are within error of each other in switch fluorescence ratio: 1.01 ± 0.029 for the first, 0.966 ± 0.028 for the second.

GGGGTTGAAA and GGGGTTGAAT are within error of each other in switch fluorescence ratio: 0.973 ± 0.083 for the first, 1.01 ± 0.046 for the second.

First: GGGGTTGGCG
Second: GGGGTTGGGA
The switch fluorescence ratio of the first is higher: 1.117 ± 0.0064 for the first, 0.971 ± 0.025 for the second.

GGGGTTGGTC and GGGGTTGGTT are within error of each other in switch fluorescence ratio: 1.04 ± 0.048 for the first, 0.995 ± 0.044 for the second.

GGGGTTGTCA and GGGGTTGTCT are within error of each other in switch fluorescence ratio: 0.99 ± 0.058 for the first, 1.01 ± 0.072 for the second.

GGGGTTTAGT and GGGGTTTATC are the same in switch fluorescence ratio: 1.01 ± 0.022 for the first, 1.01 ± 0.04 for the second.

GGGGTTTCCT and GGGGTTTGAT are within error of each other in switch fluorescence ratio: 1.11 ± 0.16 for the first, 0.996 ± 0.021 for the second.

GGGGTTTGGA and GGGGTTTTAA are within error of each other in switch fluorescence ratio: 0.987 ± 0.024 for the first, 0.988 ± 0.02 for the second.

Going from GGGGTTTTGT to GGGTAAATTG, the switch fluorescence ratio rises from 1.01 ± 0.011 to 1.041 ± 0.0068.

GGGTAAATTT and GGGTAACTGG are within error of each other in switch fluorescence ratio: 0.996 ± 0.015 for the first, 1 ± 0.027 for the second.

GGGTAAGAGT and GGGTAATGCG are within error of each other in switch fluorescence ratio: 1 ± 0.043 for the first, 1.06 ± 0.058 for the second.

Going from GGGTAATTGA to GGGTACGCAC, the switch fluorescence ratio rises from 0.99 ± 0.032 to 1.82 ± 0.034.

GGGTACGGGA and GGGTACGTCA are within error of each other in switch fluorescence ratio: 1.06 ± 0.069 for the first, 1.03 ± 0.071 for the second.

GGGTACGTCG and GGGTACTATT are within error of each other in switch fluorescence ratio: 0.996 ± 0.019 for the first, 0.982 ± 0.031 for the second.

GGGTACTGGG and GGGTAGACTT are within error of each other in switch fluorescence ratio: 1 ± 0.034 for the first, 0.996 ± 0.013 for the second.

Going from GGGTAGGATA to GGGTAGGCTT, the switch fluorescence ratio falls from 1.01 ± 0.012 to 0.965 ± 0.023.

GGGTAGTCGG and GGGTAGTGCG are within error of each other in switch fluorescence ratio: 0.993 ± 0.032 for the first, 0.9812 ± 0.0055 for the second.

GGGTATCCGT and GGGTATGGTA are within error of each other in switch fluorescence ratio: 0.979 ± 0.032 for the first, 1 ± 0.023 for the second.

GGGTATGTA and GGGTATTGTG are within error of each other in switch fluorescence ratio: 1.01 ± 0.03 for the first, 0.994 ± 0.033 for the second.

GGGTATTTGT and GGGTATTTTT are within error of each other in switch fluorescence ratio: 1 ± 0.03 for the first, 0.994 ± 0.014 for the second.

Going from GGGTCACAAA to GGGTCATAGT, the switch fluorescence ratio rises from 0.978 ± 0.01 to 1.012 ± 0.0094.

GGGTCATGTT and GGGTCATTGA are within error of each other in switch fluorescence ratio: 1 ± 0.015 for the first, 0.998 ± 0.024 for the second.

GGGTCCATGA and GGGTCCGAAT are within error of each other in switch fluorescence ratio: 1.03 ± 0.05 for the first, 1.02 ± 0.016 for the second.

Compared with GGGTCGGCCG, GGGTCGGGTA is higher in switch fluorescence ratio: 0.983 ± 0.033 for the first, 1.04 ± 0.017 for the second.

GGGTCTCAGT and GGGTCTGAGT are within error of each other in switch fluorescence ratio: 0.994 ± 0.032 for the first, 0.9621 ± 0.009 for the second.

GGGTCTGTTG and GGGTCTTTGG are within error of each other in switch fluorescence ratio: 0.975 ± 0.013 for the first, 0.97 ± 0.023 for the second.

GGGTGAAAAC and GGGTGAAAGG are within error of each other in switch fluorescence ratio: 1.03 ± 0.014 for the first, 0.996 ± 0.025 for the second.

GGGTGAAATT and GGGTGAATGG are within error of each other in switch fluorescence ratio: 0.986 ± 0.035 for the first, 0.9976 ± 0.0016 for the second.

GGGTGAGATC and GGGTGAGGAG are within error of each other in switch fluorescence ratio: 1.02 ± 0.012 for the first, 0.998 ± 0.025 for the second.

GGGTGAGGTA and GGGTGAGGTG are within error of each other in switch fluorescence ratio: 0.97888 ± 0.00072 for the first, 0.98 ± 0.068 for the second.

GGGTGATCGG and GGGTGATTTT are within error of each other in switch fluorescence ratio: 0.984 ± 0.023 for the first, 0.992 ± 0.049 for the second.

GGGTGCTGCC and GGGTGCTGTG are the same in switch fluorescence ratio: 1 ± 0.037 for the first, 1 ± 0.034 for the second.

Going from GGGTGGACCT to GGGTGGCAAG, the switch fluorescence ratio falls from 1.13 ± 0.048 to 0.996 ± 0.03.

GGGTGGCCTG and GGGTGGGCAT are the same in switch fluorescence ratio: 1.03 ± 0.077 for the first, 1.03 ± 0.013 for the second.

GGGTGGGCGT and GGGTGGGGTC are within error of each other in switch fluorescence ratio: 1.05 ± 0.043 for the first, 1 ± 0.034 for the second.

GGGTGGGTGC and GGGTGGTAGG are within error of each other in switch fluorescence ratio: 1.02 ± 0.048 for the first, 1 ± 0.028 for the second.

GGGTGGTGCT and GGGTGGTTAC are within error of each other in switch fluorescence ratio: 0.978 ± 0.021 for the first, 0.99 ± 0.044 for the second.
